Reference: paper PMC3962391, “Cation Diffusion Facilitators Transport Initiation and Regulation Is Mediated by Cation Induced Conformational Changes of the Cytoplasmic Domain” (PLoS ONE, 2014)
Substitutions are numbered along the chain they refer to. In names and notes the source's numbering stands.

B1: C-terminal truncation MamM-CTD mutant (residues 215-293) (domain or fragment, Magnetospirillum gryphiswaldense MSR-1, UniProt V6F235 215-293, looked up)
chain: EAVQNRIVEAAERVPGVRGVIHLRARYVGQDIWADMIIGVDPENTVEQAHEICEAVQAAVCGKIRRIESLHVSAEAREI
notes: MamM, Magnetospirillum gryphiswaldense MSR-1; source: purified
B2: MamM-CTD (residues 215-318) (domain or fragment, Magnetospirillum gryphiswaldense MSR-1, UniProt V6F235 215-318, looked up)
chain: EAVQNRIVEAAERVPGVRGVIHLRARYVGQDIWADMIIGVDPENTVEQAHEICEAVQAAVCGKIRRIESLHVSAEAREIGDTTKPSFSDQPLSFDEVMLSKVDN
notes: MamM, cation diffusion facilitator of the magnetosome membrane, Magnetospirillum gryphiswaldense MSR-1; Uniformly 13C,15N labelled for the solid-state NMR; also called apo-MamM-CTD; source: purified
B3: MamM-CTD V260P (domain or fragment, Magnetospirillum gryphiswaldense MSR-1, UniProt V6F235 215-318, looked up)
chain: B2 chain with V46P
notes: MamM, Magnetospirillum gryphiswaldense MSR-1; also called V260P MamM-CTD mutant; recombinant MamM-CTD V260P; source: recombinant

Target: the molecule itself
Test: SEC; Superdex200; apo proteins; elution volume against a calibration curve of marker proteins

Stoichiometry N, 2:
B1
B2
B3
